# Source: PMC3838859 (Biochemistry, 2013)
# Experiments:
# [1] = system: Nc1ncnc2c1ncn2[C@@H]1O[C@H](COP(=O)(O)OP(=O)(O)OP(=O)(O)O)[C@@H](O)[C@H]1O; assay: steady-state kinetics of the nucleosidase reaction; assay type: biochemical, Escherichia coli; conditions: Mg2+
# [2] = target: PhnI (C-P lyase nucleosidase) (Escherichia coli, UniProt P16687); assay type: biochemical
# Sequence of PhnI (C-P lyase nucleosidase) (P16687 whole entry): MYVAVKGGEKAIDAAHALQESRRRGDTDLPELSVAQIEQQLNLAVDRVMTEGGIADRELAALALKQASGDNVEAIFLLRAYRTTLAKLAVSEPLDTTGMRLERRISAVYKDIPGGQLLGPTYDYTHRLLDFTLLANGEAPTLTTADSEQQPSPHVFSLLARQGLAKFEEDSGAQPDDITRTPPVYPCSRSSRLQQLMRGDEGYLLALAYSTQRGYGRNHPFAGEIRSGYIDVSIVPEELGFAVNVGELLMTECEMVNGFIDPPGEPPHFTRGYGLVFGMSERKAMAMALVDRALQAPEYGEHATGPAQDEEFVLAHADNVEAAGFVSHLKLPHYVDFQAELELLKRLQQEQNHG
Kd [2],Molecule,Km [1]
,PhnI (C-P lyase nucleosidase) (Escherichia coli K-12),95 ± 12 µM
20 ± 4 nM,"Nc1ncnc2c([C@@H]3N[C@H](COP(=O)(O)OP(=O)(O)OP(=O)(O)O)[C@@H](O)[C@H]3O)c[nH]c12 [ImmA-TP, Immucillin-A triphosphate]",
